Publication PMC6940986, “Structural Insights into the Intracellular Region of the Human Magnesium Transport Mediator CNNM4” (International Journal of Molecular Sciences, 2019)

B1: CNNM4_(BAT-cNMP-Ctail) (complete intracellular region of human CNNM4, residues 356-775) (domain or fragment, UniProt Q6P4Q7 356-775, looked up)
chain: KEELNMIQGALELRTKTVEDIMTQLQDCFMIRSDAILDFNTMSEIMESGYTRIPVFEDEQSNIVDILYVKDLAFVDPDDCTPLKTITRFYNHPVHFVFHDTKLDAMLEEFKKGKSHLAIVQKVNNEGEGDPFYEVLGLVTLEDVIEEIIKSEILDESDMYTDNRSRKRVSEKNKRDFSAFKDADNELKVKISPQLLLAAHRFLATEVSQFSPSLISEKILLRLLKYPDVIQELKFDEHNKYYARHYLYTRNKPADYFILILQGKVEVEAGKENMKFETGAFSYYGTMALTSVPSDRSPAHPTPLSRSASLSYPDRTDVSTAATLAGSSNQFGSSVLGQYISDFSVRALVDLQYIKITRQQYQNGLLASRMENSPQFPIDGCTTHMENLAEKSELPVVDETTTLLNERNSLLHKASHENAI
notes: CNNM4, human, UniProtKB/Swiss-Prot Q6P4Q7, residues 356-775 (Bateman module, linker, cNMP domain and C-terminal tail); Cloned into pHIS-Parallel2; also called hCNNM4_(BAT-cNMP-Ctail); full intracellular region; source: E. coli BL21 (DE3), purified (HisTrap, TEV, second Ni-NTA, Superdex 75); not shown: His6, N-terminal, cleaved

Experiments:
[1] = molecular target: B1; experiment: SEC-SAXS; KW-403 size-exclusion column online, 20 C, 20 mM HEPES pH 7.4, 200 mM NaCl, 1 mM DTT; samples about 5 mg/mL; CNNM4_(BAT-cNMP-Ctail) and its complex with PRL-1 each without and with 5 mM MgATP; oligomeric state from Porod volume, Rg, Dmax; conditions: both partners purified
[2] = molecular target: the molecule itself; experiment: SEC-MALS; Superdex 200 10/300 GL, 25 C, 20 mM HEPES pH 7.4, 200 mM NaCl, 1 mM TCEP; 100 uL injected at 1 and 10 g/L; monomer to dimer

Binder	stoichiometry N [2]	also measured
PRL-1 (phosphatase of regenerating liver 1) (enzyme, PRL-1, phosphatase of the regenerating liver; The methods give no source or construct for PRL-1) MARMNRPAPVEVTYKNMRFLITHNPTNATLNKFIEELKKYGVTTIVRVCEATYDTTLVEKEGIHVLDWPFDDGAPPSNQIVDDWLSLVKIKFREEPGCCIAVHCVAGLGRAPVLVALALIEGGMKYEDAVQFIRQKRRGAFNSKQLLYLEKYRPKMRLRFKDSNGHRNNCCIQ	–	stoichiometry N [1]: 2 PRL-1 molecules per CNNM4_(BAT-cNMP-Ctail) dimer
CNNM4_(cNMP) (human CNNM4 cyclic nucleotide monophosphate binding-like domain, residues 545-730) (domain or fragment, UniProt Q6P4Q7 545-730, looked up, SeMet labeled in the crystals, CNNM4, human, UniProtKB/Swiss-Prot Q6P4Q7, residues 545-730 (cNMP domain only, without the C-terminal tail); Cloned into pHIS-Parallel2; In solution a concentration dependent mixture of monomers and dimers; also called hCNNM4_(cNMP); CNNM4_(545-730); source: E. coli BL21 (DE3), purified (HisTrap, TEV, second Ni-NTA, Superdex 75); SeMet derivative from E. coli B834 (DE3) for the crystals; not …) KISPQLLLAAHRFLATEVSQFSPSLISEKILLRLLKYPDVIQELKFDEHNKYYARHYLYTRNKPADYFILILQGKVEVEAGKENMKFETGAFSYYGTMALTSVPSDRSPAHPTPLSRSASLSYPDRTDVSTAATLAGSSNQFGSSVLGQYISDFSVRALVDLQYIKITRQQYQNGLLASRMENSPQ	2	–
B1	2	–
CNNM4_(BAT-cNMP-Ctail) F631A mutant (domain or fragment, human, UniProt Q6P4Q7 356-775, looked up, CNNM4, human, UniProtKB/Swiss-Prot Q6P4Q7, residues 356-775 with F631A; also called F631A mutant of CNNM4_(BAT-cNMP-Ctail)) KEELNMIQGALELRTKTVEDIMTQLQDCFMIRSDAILDFNTMSEIMESGYTRIPVFEDEQSNIVDILYVKDLAFVDPDDCTPLKTITRFYNHPVHFVFHDTKLDAMLEEFKKGKSHLAIVQKVNNEGEGDPFYEVLGLVTLEDVIEEIIKSEILDESDMYTDNRSRKRVSEKNKRDFSAFKDADNELKVKISPQLLLAAHRFLATEVSQFSPSLISEKILLRLLKYPDVIQELKFDEHNKYYARHYLYTRNKPADYFILILQGKVEVEAGKENMKAETGAFSYYGTMALTSVPSDRSPAHPTPLSRSASLSYPDRTDVSTAATLAGSSNQFGSSVLGQYISDFSVRALVDLQYIKITRQQYQNGLLASRMENSPQFPIDGCTTHMENLAEKSELPVVDETTTLLNERNSLLHKASHENAI	–	binding result [2]: binds
